Assay results: paper PMC12427885 (Foods, 2025)
Values belong to the molecule of their own block, whether it stands above or below them.

Assays:
[1] = molecular target: T1, DAO-GH (Glutamicibacter halophytocola, UniProt Z9MBQ1XXX8); experiment: DA-67/horseradish peroxidase coupled H2O2 assay, […] nm; Michaelis-Menten nonlinear regression; assay type: biochemical; conditions: substrate inhibition by tyramine; second site; 25 mM potassium phosphate pH 6.8, 37 °C; partially purified enzyme
T1 construct: gene from G. halophytocola isolate, codon-optimized, intracellular expression in Komagataella phaffii; partially purified (PEI, ammonium sulfate, HIC)

[2] = molecular target: diamine oxidase from Glutamicibacter halophytocola (DAO-GH) (Glutamicibacter halophytocola); experiment: SEC; HiLoad 16/600 Superdex 200 prep grade; 50 mM sodium phosphate, 150 mM NaCl, pH 7; 1 mL/min; HIC-purified (partially purified) DAO-GH; fractions analysed for DAO activity; calibrated with the high molecular weight gel filtration kit; native mass compared with the monomer's mass
[3] = tested on: NCCc1ccc(O)cc1; experiment: purified protein; conditions: apparent, 25 mM potassium phosphate pH 6.8, 37 °C, 0.005-3 mM tyramine, partially purified enzyme

T1 sequence (Z9MBQ1XXX8 1-653): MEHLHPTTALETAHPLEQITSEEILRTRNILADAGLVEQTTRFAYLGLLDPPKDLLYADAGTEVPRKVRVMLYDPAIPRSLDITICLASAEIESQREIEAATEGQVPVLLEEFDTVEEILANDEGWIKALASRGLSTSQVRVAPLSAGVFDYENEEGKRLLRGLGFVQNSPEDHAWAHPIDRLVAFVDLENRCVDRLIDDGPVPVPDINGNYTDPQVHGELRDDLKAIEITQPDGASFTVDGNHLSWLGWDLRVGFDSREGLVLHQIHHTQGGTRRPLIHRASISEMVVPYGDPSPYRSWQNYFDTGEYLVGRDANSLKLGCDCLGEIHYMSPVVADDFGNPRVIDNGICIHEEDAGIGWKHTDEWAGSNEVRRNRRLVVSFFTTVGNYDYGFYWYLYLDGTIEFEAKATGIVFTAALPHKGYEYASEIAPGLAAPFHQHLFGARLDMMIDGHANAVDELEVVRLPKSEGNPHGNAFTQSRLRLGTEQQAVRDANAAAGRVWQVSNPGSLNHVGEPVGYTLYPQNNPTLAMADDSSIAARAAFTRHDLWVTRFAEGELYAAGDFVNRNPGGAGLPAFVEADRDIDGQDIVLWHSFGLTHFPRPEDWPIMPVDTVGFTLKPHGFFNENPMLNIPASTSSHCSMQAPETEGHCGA

Molecule: NCCc1ccc(O)cc1 [tyramine]
Ki [1]: 10.4 ± 4.0 mM

stoichiometry N [2]: 2
Molecule: diamine oxidase from Glutamicibacter halophytocola (DAO-GH) (enzyme)

Molecule: DAO-GH (Glutamicibacter halophytocola)
Km [3]: 9 ± 0.2 µM
